Laboratory results as given in US20080119412A1 (NONO, published 2008).

Tests used:
Assay in all cases: G assay
[1] = target: …
[2] = target: Peptide #1829, biotin-…
[3] = target: …; remark: listed apart in the source
[4] = target: Peptide #1791, biotin-…
[5] = target: …; remark: listed apart in the source
[6] = target: Peptide #1841, biotin-…
[7] = target: Peptide #1852, biotin-[…]
[8] = target: …; remark: listed apart in the source
[9] = target: Peptide #1846, biotin-[…]

Measured: binding result

B1: GST-INADL PDZ domain 3 fusion protein (other, not shown: a dimerising Fc or GST; small tags and cut ends)
chain: PGSDSSLFETYNVELVRKDGQSLGIRIVGYVGTSHTGEASGIYVKSIIPGSAAYHNGHIQVNDKIVAVDGVNIQGFANHDVVEVLRNAGQVVHLTLVRRKTSSSTSRIHRD
notes: also called INADL d3 (96.3); INADL D3
binds: [1] | [2]

B2: GST-PAR3 PDZ domain 3 fusion protein (other, not shown: a dimerising Fc or GST; small tags and cut ends)
chain: PREFLTFEVPLNDSGSAGLGVSVKGNRSKENHADLGIFVKSIINGGAASKDGRLRVNDQLIAVNGESLLGKTNQDAMETLRRSMSTEGNKRGMIQLIVASRISKCNELKSNSS
notes: also called PAR3 d3 (278.1); PAR3 D3
binds: [1] | [3] | [4] | [5]

B3: GST-ZO-1 PDZ domain 2 fusion protein (other, not shown: a dimerising Fc or GST; small tags and cut ends)
chain: ISSQPAKPTKVTLVKSRKNEEYGLRLASHIFVKEISQDSLAARDGNIQEGDVVLKINGTVTENMSLTDAKTLIERSKGKLKMVVQRDRATLLNSS
notes: also called ZO-1 d2 (241.3); ZO-1 D2
binds: [1] | [6] | [3] | [7] | [8] | [4] | [5] | [2]

B4: GST-RIM2 PDZ domain 1 fusion protein (other, not shown: a dimerising Fc or GST; small tags and cut ends)
chain: TLNEEHSHSDKHPVTWQPSKDGDRLIGRILLNKRLKDGSVPRDSGAMLGLKVVGGKMTESGRLCAFITKVKKGSLADTVGHLRPGDEVLEWNGRLLQGATFEEVYNIILESKPEPQVELVVSRPIG
notes: also called RIM2 (177.4); RIM-2 d1
binds: [1] | [6] | [3] | [7] | [8] | [9] | [4] | [2]

B5: GST-Syntrophin 1 alpha PDZ domain 1 fusion protein (other, not shown: a dimerising Fc or GST; small tags and cut ends)
chain: QRRRVTVRKADAGGLGISIKGGRENKMPILISKIFKGLAADQTEALFVGDAILSVNGEDLSSATHDEAVQVLKKTGKEVVLEVKYMKDVSPYFK
notes: also called Syntrophin 1 alpha d1 (52.5); Syntrophin 1 alpha D1
binds: [5]
